Here are results for 2 molecules from paper PMC6127106 (2018).

As usually defined, the koff is the rate constant with which the complex falls apart. Low readings indicate slow dissociation, high ones fast dissociation.

The assay has as its target purified human platelet αIIbβ3 integrin (human, UniProt P05106 27-788). Briefly: 2D off-rate, biomembrane force probe adhesion frequency.

B1: human fibrinogen (ligand)
chain 1: GPRVVERHQSACKDSDWPFCSDEDWNYKCPSGCRMKGLIDEVNQDFTNRINKLKNSLFEYQKNNKDSHSLTTNIMEILRGDFSSANNRDNTYNRVSEDLRSRIEVLKRKVIEKVQHIQLLQKNVRAQLVDMKRLEVDIDIKIRSCRGSCSRALAREVDLKDYEDQQKQLEQVIAKDLLPSRDRQHLPLIKMKPVPDLVPGNFKSQLQKVPPEWKALTDMPQMRMELERPGGNEITRGGSTSYGTGSETESPRNPSSAGSWNSGSSGPGSTGNRNPGSSGTGGTATWKPGSSGPGSTGSWNSGSSGTGSTGNQNPGSPRPGSTGTWNPGSSERGSAGHWTSESSVSGSTGQWHSESGSFRPDSPGSGNARPNNPDWGTFEEVSGNVSPGTRREYHTEKLVTSKGDKELRTGKEKVTSGSTTTTRRSCSKTVTKTVIGPDGHKEVTKEVVTSEDGSDCPEAMDLGTLSGIGTLDGFRHRHPDEAAFFDTASTGKTFPGFFSPMLGEFVSETESRGSESGIFTNTKESSSHHPGIAEFPSRGKSSSYSKQFTSSTSYNRGDSTFESKSYKMADEAGSEADHEGTHSTKRGHAKSRPVRDCDDVLQTHPSGTQSGIFNIKLPGSSKIFSVYCDQETSLGGWLLIQQRMDGSLNFNRTWQDYKRGFGSLNDEGEGEFWLGNDYLHLLTQRGSVLRVELEDWAGNEAYAEYHFRVGSEAEGYALQVSSYEGTAGDALIEGSVEEGAEYTSHNNMQFSTFDRDADQWEENCAEVYGGGWWYNNCQAANLNGIYYPGGSYDPRNNSPYEIENGVVWVSFRGADYSLRAVRMKIRPLVTQ
chain 2: GHRPLDKKREEAPSLRPAPPPISGGGYRARPAKAAATQKKVERKAPDAGGCLHADPDLGVLCPTGCQLQEALLQQERPIRNSVDELNNNVEAVSQTSSSSFQYMYLLKDLWQKRQKQVKDNENVVNEYSSELEKHQLYIDETVNSNIPTNLRVLRSILENLRSKIQKLESDVSAQMEYCRTPCTVSCNIPVVSGKECEEIIRKGGETSEMYLIQPDSSVKPYRVYCDMNTENGGWTVIQNRQDGSVDFGRKWDPYKQGFGNVATNTDGKNYCGLPGEYWLGNDKISQLTRMGPTELLIEMEDWKGDKVKAHYGGFTVQNEANKYQISVNKYRGTAGNALMDGASQLMGENRTMTIHNGMFFSTYDRDNDGWLTSDPRKQCSKEDGGGWWYNRCHAANPNGRYYWGGQYTWDMAKHGTDDGVVWMNWKGSWYSMRKMSMKIRPFFPQQ
chain 3: YVATRDNCCILDERFGSYCPTTCGIADFLSTYQTKVDKDLQSLEDILHQVENKTSEVKQLIKAIQLTYNPDESSKPNMIDAATLKSRKMLEEIMKYEASILTHDSSIRYLQEIYNSNNQKIVNLKEKVAQLEAQCQEPCKDTVQIHDITGKDCQDIANKGAKQSGLYFIKPLKANQQFLVYCEIDGSGNGWTVFQKRLDGSVDFKKNWIQYKEGFGHLSPTGTTEFWLGNEKIHLISTQSAIPYALRVELEDWNGRTSTADYAMFKVGPEADKYRLTYAYFAGGDAGDAFDGFDFGDDPSDKFFTSHNGMQFSTWDNDNDKFEGNCAEQDGSGWWMNKCHAGHLNGVYYQGGTYSKASTPNGYDNGIIWATWKTRWYSMKKTTMKIIPFNRLTIGEGQQHHLGGAKQVRPEHPAETEYDSLYPEDDL
Take B1: the koff was 8.41 s⁻¹.

B2: C-terminal biotinylated recombinant human apoA-IV (apoA-IV-GGC) (ligand)
chain: EVSADQVATVMWDYFSQLSNNAKEAVEHLQKSELTQQLNALFQDKLGEVNTYAGDLQKKLVPFATELHERLAKDSEKLKEEIGKELEELRARLLPHANEVSQKIGDNLRELQQRLEPYADQLRTQVSTQAEQLRRQLTPYAQRMERVLRENADSLQASLRPHADELKAKIDQNVEELKGRLTPYADEFKVKIDQTVEELRRSLAPYAQDTQEKLNHQLEGLTFQMKKNAEELKARISASAEELRQRLAPLAEDVRGNLRGNTEGLQKSLAELGGHLDQQVEEFRRRVEPYGENFNKALVQQMEQLRQKLGPHAGDVEGHLSFLEKDLRDKVNSFFSTFKEKESQDKTLSLPELEQQQEQQQEQQQEQVQMLAPLESGGC
modifications: maleimide-PEG2-biotin on the C-terminal cysteine of the GlyGlyCys linker
Take B2: the koff came out at 7.85 s⁻¹.
